Reference: the supplement of paper PMC9170038

Tested on: K4 kissing-loop RNA reporter
Test: apparent KD of K4 kissing-loop reporter; higher = weaker reporter binding
Conditions: Eterna round: R107
Experimental: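 RNA-MaP round R107: designed RNA switches with theophylline, tryptophan, arginine or FMN aptamers are transcribed on-chip within common flanks. They are titrated with a labelled K4 kissing-loop RNA reporter in RNA-MaP buffer (100 mM Tris pH 7.5, 80 mM KCl, 4 mM MgCl2), without ligand or with the indicated ligand. Median apparent KD per design.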

[1] = input ligand: theophylline 20 uM
[2] = input ligand: tryptophan 2.4 mM
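Further: bound reporter read as fluorescence of individual clusters on recovered sequencing chips by microscopy, with normalized cluster intensities fitted with a binding model.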

Row | Sequence | apparent KD of K4 kissing-loop reporter (input ligand: FMN 200 uM) [µM] | apparent KD of K4 kissing-loop reporter (input ligand: arginine 13.2 mM) [µM] | apparent KD of K4 kissing-loop reporter (input ligand: none) [µM] | apparent KD of K4 kissing-loop reporter [1] [µM] | apparent KD of K4 kissing-loop reporter [2] [µM]
1 | AGACGCCAGUCGGCCGCCACUCACAGCAGUGAUGUUGCUGAAAAUCUAGAAGAGUGAUGUUCUUAGAGGACCGGGACUCCAGUCG [Same State Tryptophan B GF 6] | 0.162 | 0.153 | 0.169 | 0.141 | 0.172
2 | AGACUACCACACUGUCAAUAGACAGUGAGCUAGGAUAUGCUGAUAAGCAGAAGGAGUGAUGUUCCUUGGUAGUCAAUAAAAUAAU [FmnAX 13 G29+U67] | 0.366 | 0.271 | 0.285 | 0.319 | 0.28
3 | AGACUACCACACUGUCAAUAGACAGUGUACUAGGAUAUGCUGAUAAGCAGAAGGAGUGAUGUUCCGAGGUAGUCAAUAAAAUAAU [FmnAX 13 U28+G66] | 0.326 | 0.258 | 0.253 | 0.33 | 0.241
4 | AGAGUUAUGCGAGGAUAUGCGGUUAGUACUCAAAGAGUACUAACGCAGAGUGAUGUUCUGUGAAACACAGAAGGCGCAUAACUCA [Omei KL FMN B SS B v1] | 0.854 | 0.16 | 0.475 | 0.448 | 0.441
5 | AGAUCUGUAACAGAUACCAGAGGACGAUGAUCGGAUAGUGAUGUUAUCUGUCAGUCGUCGCUCCCUUGGCAGCUGUUACAGAUCA [Omei KL Theo B SS B v1] | 0.176 | 0.147 | 0.174 | 0.135 | 0.157
6 | AGAUUCGACACGGCCGCCACUCGUGGUGGAUUACCGAGUGUCGAAGUUGAGUGAUGUUCAAGUACGAGGACCGGGUGUUGAGUCU [KL-XTryp-B9 #analogue] | 0.193 | 0.204 | 0.198 | 0.163 | 0.435
7 | AGCGACUCUUCGGAGUCGCGGCUAAGGGAUACCAGUGAUGUUGGUCACCCUUGGCAGCCCAGAAGCCAAGCCACCAAAGGUGGCA [Omei KL Theo A Exc A v5] | 0.104 | 0.0986 | 0.111 | 0.114 | 0.113
8 | AGCGAGAUACUUGUCUAGUAUACUACAGAUACCAGACAAGUACUAGUCCCUUGGCAGCUGUAGAUCGAGUGAUGUUCGAGUCGCU [Theo A SS t1] | 0.527 | 0.415 | 0.516 | 0.43 | 0.389
9 | AGCGAGUGAUGUUCGCUGAUCAUGUGAAGUUAGGAUAUAUACUUGCAUAGAAGGAACUAUUACAUGACAUUAGAGGCAGUAGUUC [FMN A SS t7b] | 0.165 | 0.173 | 0.167 | 0.171 | 0.128
10 | AGCUAGUACGCAGGAUAUCGAACAUCAUUUAGUGAGAUCGAGUGAUGUUCGAUCACGUCUUCAGUUCGAGAAGGGCGUACUAGCA [#01 K4 FMN B Same State] | 0.349 | 0.423 | 1.09 | 1.22 | 0.777
11 | AGCUCACACGGAAGGAGCGGAUAGAACUGACAGUUGGGCUCAAGUGAUGUUUGGGCUUGAAUCCAGGUAGGUCGCCGUGUGAGCU [Arg B SS t12] | 0.136 | 0.0963 | 0.109 | 0.123 | 0.123
12 | AGCUCAGAGUGACUCGAUAAGAGUCACAAACGAGGACCGGUACGGCCGCCACUCGAAAUAACGAGAGUGAUGUUCUUGCUGAGCA [FiskerMod 7 - Jieux - Same State Tryptophan A] | 1.32 | 0.487 | 0.976 | 0.631 | 0.386
13 | AGGCACGAGCAAGGAUAUCGAGUAGAGUGAUGUUCUGCCUGGGUUGGCGCGGAAGGGCCUUCCCAGCGAGAAGGUGCUCGUGCCU [#2 Same State - FMN A Attempt #10 (HarryS)] | 0.293 | 0.569 | 0.838 | 0.615 | 0.786
14 | AGGCACGAGCAAGGAUAUUGAGUAGAGUGAUGUUCUGCCUGGGUUGGCUCGCAAGAGCCUUCUCAGCGAGAAGGUGCUCGUGCCU [#2 Same State - FMN A Attempt #25 (HarryS)] | 0.286 | 0.471 | 0.674 | 0.614 | 0.594
15 | AGGCCGAGCCAAGGAUAUUGUCAGAGUGAUGUUCGCCAAUACUCCAGCCGCGCCUCAUCAGCUGAGCAAGAAGGUGGUCCUCUCA [theeternabot_exclusion_KL_FMN_B_47] | 0.244 | 0.199 | 0.221 | 0.207 | 0.209
16 | AGGGACGAUAGCGAUACCAGAGGUCGCAAAUUCGCGCCGUUUUUUAGGAAGUGAUGUUUUCUCCCUUGGCAGCGCCCUUAGAGUU [theeternabot_exclusion_KL_Theo_B_47] | 0.881 | 0.435 | 0.945 | 0.795 | 0.688
17 | AGGUCACCACUACAGUGAUGUUGUGGAGAGCAGGAUAUGCAGAAAUGCAGAAGGGCUCGCUCUCGGUGACCGAAUGAAACAUUCA [Omei KL FMN A SS A v7] | 0.404 | 0.67 | 0.766 | 0.476 | 0.704
18 | AGUACAAUGGCGGCCGCCACUCAAUGGCAGAUCAAAGAUCUGUAUCACUCAGUGAUGUUGAGUGAGAGGACCGGGCCUUUGUACA [Omei KL Tryp B SS B v9] | 0.604 | 0.477 | 0.5 | 0.514 | 0.187
19 | AGUGAUGUUGUGUUGUGUUAGGGAAGUGAUCGAGGACCGGUACGGCCGCCACUCGAGUGAUGAGUGAGUGAUGUUUGUUUAGGGA [whbob_SS_Tryp_A_m8] | 0.926 | 1.29 | 0.395 | 3.23 | 0.375
20 | AGUGGACAUGUCUAGAGUGAUGUUCUGGAUACCAGACACGAAAGUGUCCCUUGGCAGCCGGAGUGAUGUUCUGGCGUUCACUAAA [Omei KL Theo A Exc B v7] | 0.476 | 0.267 | 0.405 | 0.414 | 0.341
21 | AGUUAUGUUGCGGCCGCCACUGCGCGAGUGAUGUUCGUGGCAUAUAUAAUGUUAUAUAUGCAUCACAGGACCGGGCGGCAUAGCG [Same State - Tryptophan B] | 0.512 | 0.313 | 0.375 | 0.329 | 0.152

Row | Sequence | apparent KD of K4 kissing-loop reporter (input ligand: FMN 200 uM) [µM] | apparent KD of K4 kissing-loop reporter (input ligand: arginine 13.2 mM) [µM] | apparent KD of K4 kissing-loop reporter (input ligand: none) [µM] | apparent KD of K4 kissing-loop reporter [1] [µM] | apparent KD of K4 kissing-loop reporter [2] [µM]
22 | AGUUUAUAGGAGGAUACCAGUACGGAUAAGGUACGUUAAUAGUAGAGUGAUGUUCUAAAGUACCCUUGGCAGCUUAGAUUGAGUU [#27 K4 Theophylline B Exclusion] | 0.11 | 0.171 | 0.13 | 0.133 | 0.101
23 | AUAACAAUCUGAAGGAGCGAGAAAGCAGUGAUGUUGCAAAGGCGAGUGAUGUUCGCAAUAACUCAGGUAGGUCGCAGAAACAAGA [Same State Arginine B] | 0.142 | 0.142 | 0.187 | 0.193 | 0.119
24 | AUACACGUUGCGGCCGCCACUUCGAUUAGUGAUGUUAGGUGUAAGCAGGCGCUGCAUUAAUGUGAAAGGACCGGGCAGAGUAAGC [theeternabot_exclusion_KL_Trp_B_39] | 0.203 | 0.114 | 0.16 | 0.206 | 0.148
25 | AUACGUUUAAGUGAUACCAGACAUGUGAGUGAUGUUUACAAAUAAAUUAAAUUUUUAGCUGUCCCUUGGCAGCACAGUUUAUUUA [JR_ExcTheophyB_Sub002] | 0.516 | 0.517 | 0.594 | 0.61 | 0.43
26 | AUAGAAAAGUGGCACCCUCACUAAAACAGUCGAGGACCGGUACGGCCGCCACUCGCGCGCUUUAGUGAUGUUAAAGCUAUGCAAA | 0.407 | 0.358 | 0.38 | 0.407 | 0.105
27 | AUAUUGGUUGAGAGUGAUGUUCCUUGUGUUCGAGGACCGGUACGGCCGCCACUCGGGUAGAAAAUAAAAGAUAUGUUUGAUUUUU [BDazzled - #12 SS Tryptophan A] | 0.162 | 0.0291 | 0.242 | 0.943 | 0.279
28 | AUAUUUAUUUAGUCACUUUUAAUAUUAUGUCAGGAUAUCGUAAUUUCGAGAAGGGACUCAUGCUAGUGAUGUUAGCUAAUUCUCA [JR_Nu3_ExcFMNA_Sub023] | 0.102 | 0.161 | 0.135 | 0.16 | 0.11
29 | AUCACAGUGAUGUUGUGAUAUGGUACAGAUACCAGACUAGUGCUAGUCCCUUGGCAGCUGUACUCAGCAGCACCACUAGCACUCG [Theo A Ex t6b] | 0.147 | 0.131 | 0.145 | 0.153 | 0.128
30 | AUGCCUCUGGCUGAUACCAGUGAUGCAGGGUAUGAGACAGGGAGUGAUGUUCCCUGCAGCCACCCUUGGCAGCAGUUUAAGUUUG [Exclusion Theophylline B GF 20] | 0.184 | 0.18 | 0.185 | 0.197 | 0.168
31 | AUGCGCGCGGCGGCCGCCACUCGCAUGAGAGUGAUGUUCUCACCGUGACCGUAAGGUCGCGGUGUGAGGACCGGGCCGGGCUGCG [#2 Same State - Tryptophan B Attempt #23 (HarryS)] | 0.0284 | 0.0727 | 0.245 | 0.281 | 0.118
32 | AUGCGCGCGGCGGCCGCCACUCGCAUGAGAGUGAUGUUCUCGCCGGGCCCGAAAGGGCCCGGUGUGAGGACCGGGCCGGGCUGCG [#2 Same State - Tryptophan B Attempt #15 (HarryS)] | 0.176 | 0.0649 | 0.145 | 0.0918 | 0.237
33 | AUGGUGGAUCAGUGAUGUUGGUGGAGUAGGUAGGAUAUGAGUGAUGUUAGAAGGAUCGGAGUGAUGUUCCAGGUGGUUGUGUUGU [KL-SSFMN-A3] | 0.54 | 0.302 | 0.548 | 0.516 | 0.389
34 | AUGUACACGAUAGUGUACUCCUAGUGAUGUUAGGAUAUGCAGAUAUGCAGAAGGAACAAGUCAUCUGACAAUAGUCGGAUGACAA [FmnAX 9 #OpenEnded #K4Early] | 0.388 | 0.0925 | 0.119 | 0.125 | 0.0941
35 | AUGUAUGAAUUAGGAUAUCGUGAGCCUUGCAUAUAUAUGAUAAAUGGAUAUGUCGUAGUGAUGUUACGAGAAGGAGUGUGGAGUA [KL-XFMN-B4] | 0.045 | 0.0616 | 0.0455 | 0.0712 | 0.0391
36 | AUGUUGAGCGGAAGGAGCGGCUGAGCCAGUGAUGUUGGUUAAUCCAAGUGAUGUUGGAAAAGCCAGGUAGGUCGCCGCUUUACGU [whbob_SS_Arginine_B_2t144] | 1.01 | 0.741 | 1.04 | 0.926 | 0.832
37 | AUUAAUUUCAGAGGAUAUCGUGAUUUUAUUUAAUUUAUUCAUUUGUGCAGUGAUGUUGCUAAUAUUCGAGAAGGCUGAUUUAUAA [whbob_Ex_FMNB__2th224] | 0.107 | 0.109 | 0.0462 | 0.11 | 0.0449
38 | AUUAAUUUCAGAGGAUAUGCUUAAUUGAUUUAUUAUUAUCUAUUAUGCAGUGAUGUUGCAUAUUUUGCAGAAGGCUGAUUUAUAA [JR_SSFMNB_Sub018] | 0.123 | 0.156 | 0.14 | 0.156 | 0.125
39 | AUUCUAUUGUGAAGGAGCGCGACUAGUAGUGAUGUUACUAUAUGACUUUAGUCUUAAUUCUCGCAGGUAGGUCGCACAAUAUAUA [JR_Nu_SSArginiB_Sub028] | 0.913 | 0.594 | 0.796 | 0.732 | 0.755
40 | AUUUAGACGAGUGAUGUUCGUGUUAAUACAGAGGAUAUGCGUGAUUGCAGAAGGCUGUAUUUAUAUAUGUUAUGUGGUUUUAAAA [whbob_Ex_FMNA__2th187] | 0.0766 | 0.115 | 0.0872 | 0.0997 | 0.0663
41 | AUUUAGACGAGUGAUGUUCGUGUUAUUACAGAGGAUAUGCGUAAAAGCAGAAGGCUGUAUUUAUAUUUGUUAUGUAAUUUUAAAA [JR_ExcFMNA_Sub006] | 0.0752 | 0.105 | 0.0859 | 0.094 | 0.0639
42 | AUUUAUCCGUCCAGCUGAGUGAUGUUUAGCCGAGGACCGGUACGGCCGCCACUCGUAAGAACCUGUUACGUUGGCUCCUGUGGUG [theeternabot_exclusion_KL_Trp_A_49] | 0.244 | 0.196 | 0.286 | 0.201 | 0.353
